# B1: minF1; a variant is named by its letters at N, in order (parent)
# chain: GAGACCGCAACTGAAAAGTTGTTNNNNAANNNNNGGNTNAATTTCTGCACGTAGAAGCAAAAGGC
# Variants of: B1
# Test: fraction ligated after 30 min (ligated reads / total reads); higher = more ligase activity
# Settings: with F1*subA RNA substrate (template-directed ligation), 42 °C
# Outline: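 Oligo-pool templates of minimized ligase ribozyme variants were PCR-amplified, T7-transcribed and gel-purified. Ligated and unligated RNAs were gel-separated, reverse transcribed with barcoded primers, and MiSeq-sequenced; core bases were filtered at quality ≥30. Fraction ligated per variant was ligated reads over total reads.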
row,Variant,fraction ligated
1,ATCAAATGGTG A28G,0.00482
2,ACAGGGATGTG A29T,0.00506
3,TCAGAGATGTG,0.00161
4,TCAGATGATGT T23A A40G,0.0104
5,TCAGAGGTGTG,0.00137
6,TCAATGATGTG,0.00347
7,TCAGGGATGTG,0.00365
8,ATAATGGATGT A40G,0.0127
9,ATAGAGATGTG,0.00202
10,CAAAGGATGTG T23A A29T,0.00472
11,TCAGATGGAGT,0.00402
12,ACAGGGATGTG,0.00108
13,ATCAATGATGT A28G,0.00479
14,ATCGGGATGTG A29T,0.045
15,ACAGATGGAGT G35T T38G A40T A41G,0.000565
16,ATCAAGGAGTG,0.00266
17,ATCAAATATGT A28G,0.00373
18,ACGATGGAGTG,0.00302
19,ATCAAGGTGTG A28G,0.00322
20,ACAATGGAGTG,0.00318
21,TAGATGGATTG T23A,0.00337

row,Variant,fraction ligated
1,TCAGTGGATGT,0.00577
2,ATCAAAGGAGT A28G A40G,0.00414
3,TCAGATGGAGT T23A,0.00368
4,ATCGAGGATGT,0.004
5,ACAGTGGAGTG,0.00292
6,ATCGTGGTGTG,0.00665
7,AAGATGGAGTG,0.000852
8,ACAGATGGTTG,0.00164
9,ATGATGGAGTG,0.00146
10,ATCGATGGTTG,0.00328
11,TAGAGGATGTG,0.00132
12,CAGATGGAGTG,0.00344
13,ATCGAGGATTG,0.00198
14,ATCAAATGGGT A28G G35T T38G A40T,0.00125
15,TCAGAGGAGTG,0.00402
16,ATCAAATGGGT A28G G35A A40G,0.00585
17,ATCAAAGGTGT A28G A40G,0.00781
18,CAGATGGATTG,0.00607
19,ATCATGGATGT A28G A40G,0.0551
20,ACAGATGAGTG,0.00298
21,ATCAAATATTG A28G,0.00289

row,Variant,fraction ligated
1,ATCAATGGAGT A28G G35T T38G A40T,0.00109
2,ATCGATGGAGT G35T T38G A40T,0.0031
3,ATCAATGGAGT G35T T38G A40T,0.00324
4,TAGAGGATGTG A29T,0.0101
5,TCAGATGGTGT A40G,0.00521
6,ATCGGGATGTG,0.00497
7,CAGATGGATGT T23A,0.00559
8,ACAGAGATGTG,0.0018
9,ATAGATGAGTG,0.00181
10,ATAATGGATGT,0.00257
11,TAGATGATGTG,0.00308
12,ATCAATGGTGT A28G A40G,0.00763
13,ACAGTGGTGTG,0.00205
14,TAGATGGATGT A40G,0.00383
15,TCAGTGGATGT T23A A40G,0.0264
16,ATCATGGATGT A28G,0.00453
17,TAGATGGAGTG,0.0023
18,ATCATGGTGTG,0.00812
19,ATAGAGGATGT,0.00209
20,ATCGAGATGTG,0.00673
21,ATCAAAGATGT A28G A40G,0.0398

row,Variant,fraction ligated
1,ATGAGGATGTG,0.00387
2,TCAATGGATGT,0.00761
3,CAGATGGTGTG T23A,0.0045
4,ATCAAATGATG A28G,0.00241
5,ATAGAGGAGTG,0.00165
6,ATGATGGATTG,0.0074
7,TCAGATATGTG T23A,0.000828
8,ATAATGGTGTG,0.00284
9,AAGAGGATGTG,0.00256
10,ATCAATGATTG A28G,0.00338
11,ATCAATGGAGT G35T T38G A40T A41G,0.00079
12,AGAAGGATGTG A29T,0.00349
13,ATCAATGGTTG,0.00416
14,AGAAGGATGTG T23C A29T,0.0071
15,ATCAAATGTGT A28G A40G,0.00666
16,ACAGAGGATGT,0.00215
17,TCAGATGTGTG T23A,0.00194
18,ATCAATATGTG,0.00461
19,ATAGTGATGTG,0.00472
20,ATCAATGGAGT A28G,0.00328
